Consider one molecule from patent publication US20160068860A1, “TRANSGENIC PLANTS” (CONSEJO SUPERIOR DE INVESTIGACIONES CIENTIFICAS (CSIC), priority 2013, published 2016).

Assay [1] relates to HAB1. Description: BiFC assay with HAB1 in N. benthamiana leaves. The assay is classed as cell-based. The following applies: no exogenous ABA. On the procedure: (§1) Experiments were performed basically as described by Voinnet et al., (2003). The different binary vectors described above where introduced into Agrobacterium tumefaciens C58C1 (pGV2260) (Deblaere et al., 1985) by electroporation and transformed cells were selected in LB plates supplemented with kanamycin (50 μg/ml). Then, they were grown in liquid LB medium to late exponential phase and cells were harvested by centrifugation and resuspended in 10 mM morpholinoethanesulphonic (MES) acid-KOH pH 5.6 containing 10 mM MgCl2 and […] acetosyringone to an OD600 nm of 1. These cells were mixed with an equal volume of Agrobacterium C58C1 (pCH32 35S:p19) expressing the silencing suppressor p19 of tomato bushy stunt virus (Voinnet et al., 2003) so that the final density of Agrobacterium solution was about 1. Bacteria were incubated for 3 h at room temperature and then injected into young fully expanded leaves of 4-week-old N. benthamiana plants. Leaves were examined after 3-4 days under a Leica TCS-SL confocal microscope and laser scanning confocal imaging system. Quantification of fluorescent protein signal was done as described (Gampala et al., 2007) using the National Institutes of Health (NIH) Image software ImageJ v1.37. […]

Assay [2] has as its target PP2CA (Arabidopsis thaliana, UniProt O80920+P49598, A194T). In words: BiFC assay with PP2CA in N. benthamiana leaves. The assay is classed as cell-based. Also noted: expressed in transfected cells; host or cells: N. benthamiana leaf epidermal cells (Agroinfiltration). The following applies: no exogenous ABA; compared to PYL4. As for the experimental part: as §1

Sequence of PP2CA (P49598 whole entry, one chain of several): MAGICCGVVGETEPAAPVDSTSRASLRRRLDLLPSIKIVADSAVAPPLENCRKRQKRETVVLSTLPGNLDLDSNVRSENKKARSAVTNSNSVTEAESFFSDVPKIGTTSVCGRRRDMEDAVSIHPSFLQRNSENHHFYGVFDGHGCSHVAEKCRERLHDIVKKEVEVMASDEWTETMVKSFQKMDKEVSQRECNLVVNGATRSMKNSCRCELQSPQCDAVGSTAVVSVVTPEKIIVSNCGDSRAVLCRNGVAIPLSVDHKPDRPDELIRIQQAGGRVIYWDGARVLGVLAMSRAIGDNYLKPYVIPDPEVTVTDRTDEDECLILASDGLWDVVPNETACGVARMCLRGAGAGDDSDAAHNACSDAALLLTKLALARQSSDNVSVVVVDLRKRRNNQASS

B1: PYL4A194T: AtPYL4 ABA receptor mutant polypeptide with A194T substitution (SEQ ID NO. 60; nucleic acid SEQ ID NO: 55); also over-expressed in plants (protein, listed as Arabidopsis thaliana)
chain: MLAVHRPSSAVSDGDSVQIPMMIASFQKRFPSLSRDSTAARFHTHEVGPNQCCSAVIQEISAPISTVWSVVRRFDNPQAYKHFLKSCSVIGGDGDNVGSLRQVHVVSGLPAASSTERLDILDDERHVISFSVVGGDHRLSNYRSVTTLHPSPISGTVVVESYVVDVPPGNTKEETCDFVDVIVRCNLQSLAKITENTAAESKKKMSL
For the molecule B1, in assay [1], the “interaction with HAB1 (BiFC), PYL4 versus PYL4A194T” value is “did not differ significantly”. Besides, the “relative fluorescence emission of interaction with PP2CA” value in assay [2] is “higher”.
